Assay results reported in patent US20110091971A1, “Differentiation of Pluripotent Stem Cells” (priority 2008, published 2011).
Positions count from the first letter of the chain named.

B1: ACTN34: activin A variant peptide, SEQ ID 35 (protein)
chain: GLECDGKVNYCCKKQLFVSFKDIGWNDWIIAPSGYHANHCTGKCPSHIAGTSGSSLSFHSTVINHYRMRGHSPFSDLGSCCVPTKLRPMSMLYYDDGQNIIKKDIQNMIVEECGCS
B2: ACTN2: activin A variant peptide, SEQ ID 3 (protein)
chain: B1 chain with Y10L, L16N, H39E, V82I
B3: ACTN37: activin A variant peptide, SEQ ID 38 (protein)
chain: B1 chain with Y10L, L16D, H39R, T41S, L77M, S79A, V82I
B4: ACTN58: activin A variant peptide, SEQ ID 59 (protein)
chain: GLECDGKVNICCKKQSFGQTKDIGWNDWIIAPSGYHGGGCTGECPSHIAGTSGSSLSFHSTVINHYRMRGHSPWANLKSCCSPTKLRPMSMLYYDDGQNIIKKDIQNMKVEECGCT
B5: ACTN66: activin A variant peptide, SEQ ID 67 (protein)
chain: B4 chain with S16M, T20A, K109V
B6: ACTN67: activin A variant peptide, SEQ ID 68 (protein)
chain: B4 chain with T41S
B7: ACTN68: activin A variant peptide, SEQ ID 69 (protein)
chain: B4 chain with Q19K, T20A, W74F, N107G
B8: ACTN70: activin A variant peptide, SEQ ID 71 (protein)
chain: B4 chain with S16L, T20A, T41S, W74V, N107G, K109V
B9: ACTN73: activin A variant peptide, SEQ ID 74 (protein)
chain: B4 chain with T20A, T41S, W74F, N107G, K109V
B10: ACTN80: activin A variant peptide, SEQ ID 81 (protein)
chain: B4 chain with T41S, S82A, T116V
B11: ACTN83: activin A variant peptide, SEQ ID 84 (protein)
chain: B4 chain with Q19R, T20A, W74F, N107G
B12: ACTN86: activin A variant peptide, SEQ ID 87 (protein)
chain: B4 chain with Q19K, T41S, K109V
B13: ACTN88: activin A variant peptide, SEQ ID 89 (protein)
chain: B4 chain with T41S, K109V
B14: ACTN92: activin A variant peptide, SEQ ID 93 (protein)
chain: B4 chain with T20A, T41S, W74F, N107G
B15: ACTN93: activin A variant peptide, SEQ ID 94 (protein)
chain: B4 chain with W74F
B16: ACTN27: activin A variant peptide, SEQ ID 28 (protein)
chain: B1 chain with Y10L, T41D, S75A, D76N, L77R, S79A, V82I
B17: ACTN42: activin A variant peptide, SEQ ID 43 (protein)
chain: B1 chain with L16D, H39K, T41S, L77M, V82I
B18: ACTN60: activin A variant peptide, SEQ ID 61 (protein)
chain: B4 chain with T41S, S82A, K109V, T116V
B19: ACTN61: activin A variant peptide, SEQ ID 62 (protein)
chain: B4 chain with S16L, G39S, W74N

tested on: H1 or H9 human embryonic stem cells; experiment: Activin A bioassay: differentiation of human embryonic stem cells to definitive endoderm, cell number and SOX17 intensity by high content analysis (96-well, four days); format: cell-based; details: concentrated supernatant (10x; ACTD3 4x), assay dilution 1:20;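 as to Cell Number average: Raw total cell count per well from high content imaging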;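 as to Sox 17 Intensity average: total fluorescence of the cell multiplied by cell area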
Summary of the method: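 Read-out was cell count and integrated SOX17 immunofluorescence by high-content imaging, with each well divided by the mean of the 100 ng/ml activin A control. Over the four-day culture, test samples were given in DMEM:F12 with 0.5% FCS plus 20 ng/ml Wnt3a for the first two days and in 2% FCS alone for the last two. Cells were H1 or H9 hESC clusters grown on Matrigel.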

| Molecule | Cell Number average | Sox 17 Intensity average |
| --- | --- | --- |
| B1 | 11794 | 8.08E+07 |

same assay, conditions: concentrated supernatant (10x; ACTD3 4x), assay dilution 1:20; control = R&D Sys Activin A 100 ng/ml

| Molecule | Sox 17 Intensity % of control [%] |
| --- | --- |
| B1 | 185 |

same assay, conditions: supernatant concentration 1x, assay dilution 1:20

| Molecule | Cell Number average | Sox 17 Intensity average |
| --- | --- | --- |
| B2 | 4057 | 1.756E+07 |

same assay, conditions: supernatant concentration 1x, assay dilution 1:20; control = R&D Sys Activin A 100 ng/ml on same plate

| Molecule | Sox 17 Intensity % of control [%] |
| --- | --- |
| B2 | 9.5 |

same assay, conditions: supernatant concentration 10x, assay dilution 1:20

| Molecule | Cell Number average | Sox 17 Intensity average |
| --- | --- | --- |
| B2 | 2965 | 2.299E+07 |

same assay, conditions: supernatant concentration 10x, assay dilution 1:20; assay plates #007, #009, #010

| Molecule | Cell Number average | Sox 17 Intensity average |
| --- | --- | --- |
| B1 | 10063 | 5.69E+07 |
| B3 | 3957 | 1.35E+06 |
| B4 | 11078 | 6.70E+05 |
| B5 | 13360 | 4.84E+05 |
| B6 | 12653 | 4.44E+05 |
| B7 | 13395 | 1.43E+06 |
| B8 | 12551 | 9.67E+05 |
| B9 | 10569 | 8.27E+05 |
| B10 | 9898 | 4.08E+05 |
| B11 | 12084 | 5.39E+05 |
| B12 | 11821 | 7.45E+05 |
| B13 | 11583 | 6.21E+05 |
| B14 | 14298 | 5.60E+05 |
| B15 | 13409 | 5.87E+05 |
| B16 | 6664 | 1.39E+07 |
| B17 | 9937 | 3.45E+06 |
| B18 | 8303 | 5.90E+05 |
| B19 | 15268 | 1.70E+06 |

same assay, conditions: supernatant concentration 10x, assay dilution 1:20; control = R&D Sys Activin A 100 ng/ml on same plate

| Molecule | Sox 17 Intensity % of control [%] |
| --- | --- |
| B1 | 257.4 |
| B3 | 6.1 |
| B4 | 3.0 |
| B2 | 12.5 |
| B5 | 2.2 |
| B6 | 2.0 |
| B7 | 6.5 |
| B8 | 4.4 |
| B9 | 3.7 |
| B10 | 1.8 |
| B11 | 2.4 |
| B12 | 3.4 |
| B13 | 2.8 |
| B14 | 2.5 |
| B15 | 2.7 |
| B16 | 55.7 |
| B17 | 13.8 |
| B18 | 2.4 |
| B19 | 6.8 |

same assay, conditions: supernatant concentration 10x, assay dilution 1:40

| Molecule | Cell Number average | Sox 17 Intensity average |
| --- | --- | --- |
| B2 | 2232 | 1.280E+07 |

same assay, conditions: supernatant concentration 10x, assay dilution 1:40; control = R&D Sys Activin A 100 ng/ml on same plate

| Molecule | Sox 17 Intensity % of control [%] |
| --- | --- |
| B2 | 7.0 |

same assay, conditions: supernatant concentration 50x, assay dilution 1:20; assay plates #008, #009

| Molecule | Cell Number average | Sox 17 Intensity average |
| --- | --- | --- |
| B1 | 12163 | 1.47E+08 |
| B3 | 2902 | 5.89E+06 |
| B4 | 13214 | 3.78E+06 |
| B5 | 16460 | 3.39E+06 |
| B6 | 14821 | 3.50E+06 |
| B7 | 15926 | 1.83E+06 |
| B8 | 16071 | 3.20E+06 |
| B9 | 16351 | 3.13E+06 |
| B10 | 14686 | 3.52E+06 |
| B11 | 15829 | 9.01E+06 |
| B12 | 17034 | 2.34E+06 |
| B13 | 15317 | 2.87E+06 |
| B14 | 15009 | 3.32E+06 |
| B15 | 15900 | 2.67E+06 |
| B16 | 6857 | 2.82E+07 |
| B17 | 7805 | 7.53E+06 |
| B18 | 10603 | 3.73E+06 |
| B19 | 15256 | 7.18E+06 |

same assay, conditions: supernatant concentration 50x, assay dilution 1:20; control = R&D Sys Activin A 100 ng/ml on same plate

| Molecule | Sox 17 Intensity % of control [%] |
| --- | --- |
| B1 | 266.9 |
| B3 | 10.6 |
| B4 | 6.8 |
| B5 | 6.1 |
| B6 | 6.3 |
| B7 | 3.3 |
| B8 | 5.8 |
| B9 | 5.7 |
| B10 | 6.4 |
| B11 | 16.3 |
| B12 | 4.2 |
| B13 | 5.2 |
| B14 | 6.0 |
| B15 | 4.8 |
| B16 | 113.1 |
| B17 | 30.2 |
| B18 | 15.0 |
| B19 | 28.8 |
